{"source": "patent US20150299298A1", "about": "(TRELLIS BIOSCIENCE, published 2015)", "key": {"[1]": {"target": "IHF from Staphylococcus aureus (Staphylococcus aureus) (UniProt Q5HFV0)", "assay": "ELISA"}, "[2]": {"target": "T1, IHF from Staphylococcus aureus (Staphylococcus aureus, UniProt Q5HFV0 1-90)", "T1 construct": "mature; not shown: poly-histidine tag", "T1 sequence": "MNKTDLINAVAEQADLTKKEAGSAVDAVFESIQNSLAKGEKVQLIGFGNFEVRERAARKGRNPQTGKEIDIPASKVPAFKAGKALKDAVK", "assay": "ELISA on IHF from S. aureus (IHF-Sa ELISA), OD 450 nm against [mAb] nM"}, "[3]": {"target": "T1, IHF from Staphylococcus aureus", "assay": "ELISA on IHF from S. aureus (IHF-Sa ELISA), OD 450 nm against [mAb] nM", "remark": "listed apart in the source"}, "[4]": {"target": "T2, IHF from Klebsiella pneumoniae (Klebsiella pneumoniae, UniProt A6TAI1 1-99)", "T2 construct": "also called IHF (Kp); K. pneumoniae", "T2 sequence": "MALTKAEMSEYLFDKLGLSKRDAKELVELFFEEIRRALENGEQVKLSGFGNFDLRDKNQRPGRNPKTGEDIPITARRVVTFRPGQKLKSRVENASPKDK", "assay": "ELISA at pH 2.5"}, "[5]": {"target": "T3, IHF from Pseudomonas aeruginosa (Pseudomonas aeruginosa, UniProt Q51472 2-100)", "T3 construct": "mature; also called IHF (Pa); P. aeruginosa; not shown: poly-histidine tag", "T3 sequence": "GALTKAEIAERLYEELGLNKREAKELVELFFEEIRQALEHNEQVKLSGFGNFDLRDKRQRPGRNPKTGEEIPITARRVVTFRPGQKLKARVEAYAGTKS", "assay": "ELISA at pH 2.5"}, "[6]": {"target": "T1, IHF from Staphylococcus aureus", "assay": "ELISA at pH 2.5"}, "[7]": {"target": "T2, IHF from Klebsiella pneumoniae", "assay": "ELISA at pH 3.5"}, "[8]": {"target": "T3, IHF from Pseudomonas aeruginosa", "assay": "ELISA at pH 3.5"}, "[9]": {"target": "T1, IHF from Staphylococcus aureus", "assay": "ELISA at pH 3.5"}, "[10]": {"target": "T2, IHF from Klebsiella pneumoniae", "assay": "ELISA at pH 4.5"}, "[11]": {"target": "T3, IHF from Pseudomonas aeruginosa", "assay": "ELISA at pH 4.5"}, "[12]": {"target": "T1, IHF from Staphylococcus aureus", "assay": "ELISA at pH 4.5"}, "[13]": {"target": "T2, IHF from Klebsiella pneumoniae", "assay": "ELISA at pH 5.5"}, "[14]": {"target": "T3, IHF from Pseudomonas aeruginosa", "assay": "ELISA at pH 5.5"}, "[15]": {"target": "T1, IHF from Staphylococcus aureus", "assay": "ELISA at pH 5.5"}, "[16]": {"target": "T2, IHF from Klebsiella pneumoniae", "assay": "ELISA at pH 6.5"}, "[17]": {"target": "T3, IHF from Pseudomonas aeruginosa", "assay": "ELISA at pH 6.5"}, "[18]": {"target": "T1, IHF from Staphylococcus aureus", "assay": "ELISA at pH 6.5"}, "[19]": {"target": "T2, IHF from Klebsiella pneumoniae", "assay": "ELISA at pH 7.5"}, "[20]": {"target": "T3, IHF from Pseudomonas aeruginosa", "assay": "ELISA at pH 7.5"}, "[21]": {"target": "T1, IHF from Staphylococcus aureus", "assay": "ELISA at pH 7.5"}}, "note": "Read-outs that look alike come from different tables or passages of the source."}
{"binder": "TRL1230 (antibody, V domains shown) VH: QVQLVQSGGGLVKPGGSLRLSCGASGFNLSSYSMNWVRQAPGKGLEWVSSISSRSSYIYYADSVQGRFTISRDNAKNSLYLQMNSLRAEDTAIYYCARVSPSTYYYYGMDVWGQGTTVTVSS VL: DIVLTQPSSVSVSPGQTARITCSGDELPKQYAYWYQQKPGQAPVLVIYKDNERPSGIPERFSGSSSGTTVTLTISGVQAEDEADYYCQSADSSGTYVVFGGGTKLTVL", "values": [{"measurement": "OD", "setting": "[1]", "result": 0.1, "unit": "OD"}]}
{"binder": "TRL1337 (antibody, V domains shown) VH: QVQLLESGPGLVKPSETPSLTCTVSGGSIRSYYWSWIRQPPGKGLEWIGYIYYSGSTNYNPSLKSRVTISVDMSKNQFSLKLSSVTAADTAMYYCARVYGGSGSYDFDYWGQGTLVTVSS VL: DIVLTQSPSASGSPGQSVTISCTGTSSDVGGYNYVSWYQQLPGKAPKLMIYEVTKRPSGVPDRFSGSKSGNTASLTVSGLQAEDEADYYCSSFAGSNNHVVFGGGTKLTVL", "values": [{"measurement": "Kd", "setting": "[2]", "result": 6, "unit": "nM"}, {"measurement": "Kd", "setting": "[3]", "result": 6, "unit": "nM"}]}
{"binder": "TRL1338 (antibody, V domains shown) VH: QLTLRESGPTLVKPTQTLTLTCTFSGFSLSTNGVGVGWIRQPPGKALEWLAIIYWDDDKRYSPSLKSRLTITKDTSKNQVVLTLTNMDPVDTGTYYCAHILGASNYWTGYLRYYFDYWGQGTLVTVST VL: DIEMTQSPSVSVSPGQTARITCSGEPLAKQYAYWYQQKSGQAPVVVIYKDTERPSGIPERFSGSSSGTTVTLTISGVQAEDEADYHCESGDSSGTYPVFGGGTKLTVL", "values": [{"measurement": "Kd", "setting": "[2]", "result": 42, "unit": "nM"}, {"measurement": "Kd", "setting": "[3]", "result": 42, "unit": "nM"}]}
{"binder": "TRL1068 (antibody, V domains shown) VH: QVQLVESGPGLVKPSETLSLTCRVSGDSNRPSYWSWIRQAPGKAMEWIGYVYDSGVTIYNPSLKGRVTISLDTSKTRFSLKLTSVIAADTAVYYCARERFDRTSYKSWWGQGTQVTVSS VL: DIVLTQAPGTLSLSPGDRATLSCRASQRLGGTSLAWYQHRSGQAPRLILYGTSNRATDTPDRFSGSGSGTDFVLTISSLEPEDFAVYYCQQYGSPPYTFGQGTTLDIK", "values": [{"measurement": "Affinity", "setting": "[4]", "result": 2.6, "unit": "nM"}, {"measurement": "Affinity", "setting": "[5]", "result": 2.1, "unit": "nM"}, {"measurement": "Affinity", "setting": "[6]", "result": 3.5, "unit": "nM"}, {"measurement": "Affinity", "setting": "[7]", "result": 3, "unit": "nM"}, {"measurement": "Affinity", "setting": "[8]", "result": 0.26, "unit": "nM"}, {"measurement": "Affinity", "setting": "[9]", "result": 0.36, "unit": "nM"}, {"measurement": "Affinity", "setting": "[10]", "result": 0.05, "unit": "nM"}, {"measurement": "Affinity", "setting": "[11]", "result": 9, "unit": "pM"}, {"measurement": "Affinity", "setting": "[12]", "result": 0.012, "unit": "nM"}, {"measurement": "Affinity", "setting": "[13]", "result": 9, "unit": "pM"}, {"measurement": "Affinity", "setting": "[14]", "result": 6, "unit": "pM"}, {"measurement": "Affinity", "setting": "[15]", "result": 0.012, "unit": "nM"}, {"measurement": "Affinity", "setting": "[16]", "result": 6, "unit": "pM"}, {"measurement": "Affinity", "setting": "[17]", "result": 5, "unit": "pM"}, {"measurement": "Affinity", "setting": "[18]", "result": 0.012, "unit": "nM"}, {"measurement": "Affinity", "setting": "[19]", "result": 6, "unit": "pM"}, {"measurement": "Affinity", "setting": "[20]", "result": 5, "unit": "pM"}, {"measurement": "Affinity", "setting": "[21]", "result": 0.01, "unit": "nM"}]}
